# In the NTF2 design screens of Basanta et al. (2020):
# Experiment: protease stability score; higher = more stable; yeast display proteolysis, trypsin and chymotrypsin;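 note: relative to predicted unfolded state with 0 unfolded-like and 1 meaning tenfold more protease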
row,Sequence,protease stability score
1,DEIDERLHFLMKRVLHLWETGDWDMWMNYADPHVRHEIIIGDKRYSLHGREEYAEELLRHHRHIRLHTIHITHIDVVNGRVELNGRVNGDINGQHVDVELYVELKVVDGRIESERMEFR,0.412
2,SNEDEIAQHLVRLILNAHLTGDEKLLETLADPTMRFTLRIGDKQHERHGREEWIKWVRHTIERIDHIEIRIDDRRIQGDKIEIDGTLRLEIGDKVNQVRVDIIIHLVNGRLKEVIIEVV,2.06
3,SEEERLAREISKELVEILLTGDEDRLLELADPDVRHILLFNGRDDDQHGRENMSRAEKLFREWLGVKHVDVTHVEVQGDKIHNDTVVDINGVRFEFRIIWVVVNGRVKVWRVEMR,1.52
4,TEDEENAERVARMFLKLLTTGDEHRLTELLDPNVIVEVGDKILIGREEALKLLRTWREKYGIDHVDVRHVEIEIVGDKVNVHMHGTIYVGDKKKDTRIHLHIRKINGRWMVEKVSIEEK,2.68
5,SDDEQNVRDTFTEFVESMETGDEDHMLEMVDPHVRIEFENHSHIGRDNVHRWILFFKNATLRWKLERMHVYDGRVEIHSRMEVEVNGREIEFNIILHVRKVDGKWVIHEIRIH,1.14
6,NEREEHIRRLAELVRELIDTGDFDRLIKNADPNVRLEMEIGDKRIEHHGRERVHEQLEEFERRFKNATFIWKRIDVQGEKVLLDGTIRINGQEHEMHWDNQMFNGRIHSIRIDVR,2.2
7,EESEKSAKLLLDWLFRHLITGNEETFQHFADPNARVDQGEKDSHGMEWVRLVLEEIRIDNMHVRDFRIFEGRLIIDTEIRIKYNGVEMTIKVTVVSEKVNGKWRMKSMHVN,1.04
8,DEEEKLATIVMELIEETWETGDEDLFEQLADPNVRVEIGDKVYIGREIALEWFVREIRKRGAELKHTTTHNLDVQGDKVNNDMKVNGNINGRVVIFTTHLDVRKINGKWFLRSISFK,1.29
9,DETDEHAHKMFEIIIHYLLTGDWKELIKLADPHVKLEFDINGKTIDLVGRELFTEFFLRFKNVRSEIDDVRHIGDKNHARVRVNWDGRDTEVQIDIVIIDGVVHRVRLIFK,2.59
10,SEDHEAAHEVIREWEKVHKTGDEHIFTQLLDPHMRIEIGDKRFHGRDEAVTHFRENLTHWRIHRMEMEDVNSQGEYIIYHVQNFVRINGKVVILDLTIIILKVDGRWVIHSIHIK,1.24
11,SEERDHARRALNKMWKAIETGDEDTFEKLMDPDVRIEIGDKEIHGRELYVKIWQEMRFHIRRTRITDSKTFNGRVDIEFEEDFEIIVGDKIERYDYRVTFHSLKVNGRWEHSSMRLH,0.202
12,HEKEHRLHEIMELWLKLVQTGNEEILMELADPHTKLDIGDKHLHGRELTSRFLLHMRIEDLTIKRIDVQGDYAHIDGHVIGVINGRRFISDRHIHLDIYNGKHRRVEVRIE,1.01
13,SEEEDRIRQALELELHYLRTGDEDSTRRLIDPHMKLTVNGKEHHGMDWFIEELRRVDHIEMHPHHIHSFGEKAHIRVKLTLHFDGVTFERDVTIVFHKVDGRWVIESMQLD,1
14,DEEDREKDDLLRRFITAIYTGDERAIKEYLDPHVRTVFNGQEKHGREEVTTLVWQIMRELGIKVIRTHDEREQGNKVELHLELFVGNKRLEINVFAEKVDGKWILRQFIIKVD,1.2
15,DEEIEMLTKLAELFIRLWLTGNEDILESMADPRVRLEINGREHHGRDIVRKIFEHDRHHMRLESIQLHDRRVYNGRADLHGTQYGEINGKRETYTVRLILVIINGRIETVKVIVE,1.14
16,SELERLIMEMLHLLIELWLTGDEETLSKLIDPNTRLIVIQGDKHIIVHGRELVLHIMRRIREEIRFEDSRIRSMDAQGNKASINEEMHFRIGDKEVRFEREVEVWVIDGKLHSLVIRIK,0.871
17,RDVEHLLEKWMEDHMEALHTGDEDRIHELLDPHVRVHIDGVNLHGRERAVEFMVRSLRELGIKHIKLDVEDVEVQGEKVIIDLRVNLDYDGREHRDKEIIILLKIDGKWVIEEVRRG,1.07
18,DEKHEIMREALKEFITEQRTGNEDRIKQLMDPNVRIFVGDKEFHGREEVMRILKILRHELGVDNIFIILRSMHIVDGRVHLDVELHINGRIFKSELVILKIDGQWLIRSIHIE,1.66
19,DELDRRAKKMLRIWLEERFTGDEETVSKLADPDTRTQIHVGDKDLVSIGMESVSEFLRRMIHHWRIEHVKVKDTKVFDGVAHLHGEIHGNIDGQRVDVRLEVRVVVINGRIHSMSEEFT,1.61
20,SEDKDNAQDLLHHVVKAWNTGDEDLTRKLFDPHVRLDINGVEIHGWRDLLRVLRELRLRVEMRVHDADFINGVIHLYTTVHSHIHFNGVDFHFHHETRMIILKINGRWLVHSITYL,0.675
21,DEEDHHLRQIFEELLRALVTGDEEFLEQMADPRTRFILIIDGRRIEWHGREEFFRHFHEWRLRNYRITHLESYNGRIRVEGEVDENFNGKERHTKTHHTIIVINGRLHSIVLNIH,1.72
22,DEDRRIAEHLIKLYLQSTRTGDENSIRHLMDPNTRVIVGDKDRIGREAAEELLRRVDHLHDYKIEDIRFVGDFIDVEMRVDGEFDGVREHYRVILILFKVDGRWRIHLIEIR,1.55
23,DHETRWLRHVLKIWDHMVETGDWEKSERLADPNTKLVIDGVDLHGRRDYNRHMRELRVHHTEINDVELTNIGDKVHLYREVDYDITVDGRRIITHIELFLIIRKVDGRWILEEQEVNFR,0.236
24,DEKEHFAKWFIHVLIRHWYTGDEETTHRLADPNARYEIGDKELIGMDELFRHLEQLRVDSIDYRVEDIRFQGEKIHIHGKIRVEGVVNGQHFHLTFDLILHVEKINGRWHFREMQTR,1.25
25,KEEEEDLKKATEDMMHLLSTGDWDTIYRLADPNTRIEINGREEVGMDLYVDKSMEEFRRLGIDKIHIHLHSVTNVNGKIYIDTRYEFNGVKIRMHIVIEKINGRWLLRTLSVK,1.52
